Source: patent US20080206243A1 (Genentech, published 2008)

Tests used:
KDR [1] = target: T1, KDR (UniProt P35968 20-764, limits assumed); assay: soluble radio-immuno receptor-binding assay (RIA)
T1 construct: The receptor construct used in the RIA is not described; also called KDR receptor; VEGFR-2

KDR [2] = target: T1, KDR; assay: soluble radio-immuno receptor-binding assay (RIA); target KDR
Flt-1 = target: T2, Flt-1 (UniProt P17948 27-758, limits assumed); assay: soluble radio-immuno receptor-binding assay (RIA); target Flt-1
T2 construct: The receptor construct used in the RIA is not described; also called Flt-1 receptor; VEGFR-1
T2 sequence (P17948 27-758 limits assumed): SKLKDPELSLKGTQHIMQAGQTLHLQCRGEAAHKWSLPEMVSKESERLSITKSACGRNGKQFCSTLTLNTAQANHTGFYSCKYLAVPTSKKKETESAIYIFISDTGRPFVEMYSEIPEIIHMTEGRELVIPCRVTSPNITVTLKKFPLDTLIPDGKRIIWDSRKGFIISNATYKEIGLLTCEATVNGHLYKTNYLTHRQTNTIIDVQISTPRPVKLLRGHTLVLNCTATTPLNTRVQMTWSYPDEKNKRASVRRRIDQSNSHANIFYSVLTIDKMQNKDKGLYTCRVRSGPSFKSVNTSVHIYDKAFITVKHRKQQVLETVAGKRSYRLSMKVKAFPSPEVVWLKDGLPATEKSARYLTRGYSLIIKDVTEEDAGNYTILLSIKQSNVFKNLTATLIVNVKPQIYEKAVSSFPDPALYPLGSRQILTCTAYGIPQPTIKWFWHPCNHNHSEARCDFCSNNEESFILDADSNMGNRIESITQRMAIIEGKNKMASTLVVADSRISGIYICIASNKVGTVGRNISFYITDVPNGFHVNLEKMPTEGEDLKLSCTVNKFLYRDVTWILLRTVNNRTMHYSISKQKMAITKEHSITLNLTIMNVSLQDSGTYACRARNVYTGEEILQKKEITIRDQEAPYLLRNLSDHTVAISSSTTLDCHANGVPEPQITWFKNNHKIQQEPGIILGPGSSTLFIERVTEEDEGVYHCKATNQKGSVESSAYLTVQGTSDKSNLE

T1 sequence (P35968 20-764 limits assumed): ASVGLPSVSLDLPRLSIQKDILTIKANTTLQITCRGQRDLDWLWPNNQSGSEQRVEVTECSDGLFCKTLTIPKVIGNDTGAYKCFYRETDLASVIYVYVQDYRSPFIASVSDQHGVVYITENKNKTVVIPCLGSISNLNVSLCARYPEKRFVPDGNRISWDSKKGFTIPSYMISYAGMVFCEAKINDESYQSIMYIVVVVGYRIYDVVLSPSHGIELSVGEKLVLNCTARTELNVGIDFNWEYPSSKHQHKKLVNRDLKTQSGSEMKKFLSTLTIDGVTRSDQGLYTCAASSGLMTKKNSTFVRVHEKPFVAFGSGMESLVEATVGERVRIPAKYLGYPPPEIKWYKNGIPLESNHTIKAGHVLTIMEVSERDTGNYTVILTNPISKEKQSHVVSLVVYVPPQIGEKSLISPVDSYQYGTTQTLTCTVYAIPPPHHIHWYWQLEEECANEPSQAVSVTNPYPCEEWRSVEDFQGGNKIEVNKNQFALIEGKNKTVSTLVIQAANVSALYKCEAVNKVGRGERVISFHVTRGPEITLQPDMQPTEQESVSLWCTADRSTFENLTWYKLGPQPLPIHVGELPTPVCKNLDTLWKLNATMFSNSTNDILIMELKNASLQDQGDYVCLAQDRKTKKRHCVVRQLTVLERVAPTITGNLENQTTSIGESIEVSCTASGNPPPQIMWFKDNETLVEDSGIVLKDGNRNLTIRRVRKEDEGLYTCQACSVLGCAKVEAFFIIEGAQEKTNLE

I43A/I46A/Q79A/I83A Flt-sel variant (from UniProt P15692 27-135) (ligand)
fold reduction of KDR-binding affinity against native VEGF (KDR [1]): > 470 fold

B1: native VEGF(8-109) (ligand, human, UniProt P15692 214-315, looked up)
chain: GQNHHEVVKFMDVYQRSYCHPIETLVDIFQEYPDEIEYIFKPSCVPLMRCGGCCNDEGLECVPTEESNITMQIMRIKPHQGQHIGEMSFLQHNKCECRPKKD
notes: range 8-109; Residues 8-109 are counted on the native (mature) 165-amino acid VEGF, not on the precursor with its signal peptide; the listing holds only primers; also called native protein
Kd (KDR [2]): 0.5 nM
Kd (Flt-1): 0.4 nM
